# Test results: US20140086935A1 (Bayer, published 2014)
# Where two headings read alike, the source gives them in different places.
# What was measured:
# rat TIMP-1 [1] = target: T1, rat TIMP-1 (rat, UniProt P30120 24-217); experiment: cell-based or functional assay
# rat TIMP-1 [2] = target: T1, rat TIMP-1; experiment: SPR (BIAcore), TIMP-1 coupled to chip, monovalent Fab
# Description: (§1) For affinity determination, monomeric fractions of affinity and SEC purified Fab fragments or purified IgG1 molecules were used. All experiments were conducted in HBS buffer at a flow rate of 20 μl/min at 25° C. on a BIAcore™ instrument. Antigens in 100 mM sodium acetate pH 5.0 were coupled to a CM 5 sensor chip using standard EDC-NHS coupling chemistry. […] All sensograms were fitted globally using BIA evaluation software. For monovalent Fab fragments a monovalent fit (Langmuir binding) and for IgGs a bivalent fit was applied.
# rat TIMP-1 [3] = target: T1, rat TIMP-1; experiment: cell-based or functional assay; remark: listed apart in the source
# rat TIMP-1 [4] = target: T1, rat TIMP-1; experiment: SPR (BIAcore), TIMP-1 coupled to chip, monovalent Fab; remark: listed apart in the source
# Description: as §1
# rat TIMP-1 [5] = target: T1, rat TIMP-1; experiment: cell-based or functional assay; remark: listed apart in the source
# rat TIMP-1 [6] = target: T1, rat TIMP-1; experiment: SPR (BIAcore), rat TIMP-1 on chip, monovalent Fab
# Description: as §1
# rat TIMP-1 [7] = target: T1, rat TIMP-1; experiment: cell-based or functional assay; remark: listed apart in the source
# human TIMP-1 [8] = target: T2, human TIMP-1 (human, UniProt P01033 24-207); experiment: SPR (BIAcore), human TIMP-1 on chip, IgG1, bivalent fit (avidity)
# T2 construct: Purified protein, coupled to the BIAcore chip or in solution in the protease assay
# Description: as §1
# human TIMP-1 [9] = target: T2, human TIMP-1; experiment: cell-based or functional assay
# human TIMP-1 [10] = target: T2, human TIMP-1; experiment: cell-based or functional assay; remark: listed apart in the source
# human TIMP-1 [11] = target: T2, human TIMP-1; experiment: SPR (BIAcore), TIMP-1 coupled to chip, monovalent Fab
# Description: as §1
# human TIMP-1 [12] = target: T2, human TIMP-1; experiment: as above; remark: listed apart in the source
# Description: as §1
# human TIMP-1 [13] = target: T2, human TIMP-1; experiment: cell-based or functional assay; remark: listed apart in the source
# human TIMP-1 [14] = target: T2, human TIMP-1; experiment: SPR (BIAcore); against the parental Fab (MS-BW-3, 13 nM; not given)
# Description: as §1
# human TIMP-1 [15] = target: T2, human TIMP-1; experiment: SPR (BIAcore), TIMP-1 coupled to chip, monovalent Fab; remark: listed apart in the source
# Description: as §1
# human TIMP-1 [16] = target: T2, human TIMP-1; experiment: as above; remark: listed apart in the source
# Description: as §1
# human TIMP-1 [17] = target: T2, human TIMP-1; experiment: cell-based or functional assay; remark: listed apart in the source
# human TIMP-1 [18] = target: T2, human TIMP-1; experiment: cell-based or functional assay; remark: listed apart in the source
# rat TIMP-1 [19] = target: T1, rat TIMP-1; experiment: cell-based or functional assay; remark: listed apart in the source
# rat TIMP-1 [20] = target: T1, rat TIMP-1; experiment: SPR (BIAcore), rat TIMP-1 on chip, IgG1, bivalent (avidity)
# Description: as §1
# Affinity matured clone MS-BW-17-1 was then converted from a monovalent Fab fragment to a bivalent IgG₁. Protein was produced by stable transfection. Purified protein was subjected to quality control in BIAcore™ and rat TIMP-1/rat MMP-13 assays (FIG. 13).
# T1 sequence (P30120 24-217 limits assumed): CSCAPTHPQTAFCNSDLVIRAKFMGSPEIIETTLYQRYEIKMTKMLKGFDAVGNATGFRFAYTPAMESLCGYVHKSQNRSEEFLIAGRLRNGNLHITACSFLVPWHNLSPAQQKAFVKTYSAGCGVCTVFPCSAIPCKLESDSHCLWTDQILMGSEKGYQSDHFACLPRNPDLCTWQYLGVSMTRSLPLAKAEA
binder,measurement,setting,value
"MS-BW-39 (Fab, V domains shown, Fab, FLAG + Strep-tag II; not tied by name) VH: QVQLVQSGAEVKKPGSSVKVSCKASGGTFSSYAISWVRQAPGQGLEWMGGIIPIFGTANYAQKFQGRVTITADESTSTAYMELSSLRSEDTAVYYCARGYIPYHLFDYWGQGTLVTVSS VL: not shown",IC50 in rat protease assay,rat TIMP-1 [1],> 100 nM
same,Kd,rat TIMP-1 [2],~108 nM
same,IC50 in rat protease assay,rat TIMP-1 [3],> 100 nM
same,Kd,rat TIMP-1 [4],~108 nM
"MS-BW-14 (Fab, V domains shown, Fab, FLAG + Strep-tag II; not tied by name; also called MS-BW-14 Fab) VH: QVQLVQSGAEVKKPGSSVKVSCKASGGTFSSYAISWVRQAPGQGLEWMGGIIPIFGTANYAQKFQGRVTITADESTSTAYMELSSLRSEDTAVYYCARWSDQSYHYYWHPYFDVWGQGTLVTVSS VL: DIVLTQPPSVSGAPGQRVTISCSGSSSNIGSNYVSWYQQLPGTAPKLLIYDNNQRPSGVPDRFSGSKSGTSASLAITGLQSEDEADYYCQSWDLEPYVFGGGTKLTVLG",IC50 in rat protease assay,rat TIMP-1 [5],14 nM
same,Kd,rat TIMP-1 [6],13 nM
same,"IC50 (50 % reversal of the inhibition of rat MMP-13 by rat TIMP-1, fluorogenic peptide substrate assay)",rat TIMP-1 [7],~11 nM
same,Kd,rat TIMP-1 [2],10 nM
same,IC50 in rat protease assay,rat TIMP-1 [3],14 nM
same,Kd,rat TIMP-1 [4],10 nM
"MS-BW-3 IgG1 (antibody, V domains shown, Variable regions of Fab MS-BW-3 cloned into human IgG1 vectors; also called negative control IgG1 MS-BW-3; control antibody; copies: 2 + 2) VH: not shown VL: DIALTQPASVSGSPGQSITISCTGTSSDVGGYNYVSWYQQHPGKAPKLMIYDVSNRPSGVSNRFSGSKSGNTASLTISGLQAEDEADYYCQSYDFLRFSVFGGGTKLTVL",Kd,human TIMP-1 [8],~0.4 nM
"MS-BW-25 (Fab, V domains shown, Fab, FLAG + Strep-tag II; not tied by name) VH: not shown VL: DIALTQPASVSGSPGQSITISCTGTSSDVGGYNYVSWYQQHPGKAPKLMIYDVSNRPSGVSNRFSGSKSGNTASLTISGLQAEDEADYYCQSYDFINVIVFGGGTKLTVLG",IC50 in human protease assay,human TIMP-1 [9],115 nM
same,IC50 in rat protease assay,rat TIMP-1 [1],> 300 nM
same,IC50 in human protease assay,human TIMP-1 [10],115 nM
same,Kd,human TIMP-1 [11],25 nM
same,Kd,rat TIMP-1 [2],4520 nM
same,Kd,human TIMP-1 [12],25 nM
"MS-BW-27 (Fab, V domains shown, Fab, FLAG + Strep-tag II; not tied by name) VH: not shown VL: DIALTQPASVSGSPGQSITISCTGTSSDVGGYNYVSWYQQHPGKAPKLMIYDVSNRPSGVSNRFSGSKSGNTASLTISGLQAEDEADYYCQSYDFYKFNVFGGGTKLTVLG",Kd,human TIMP-1 [11],~74 nM
same,Kd,human TIMP-1 [12],~74 nM
"MS-BW-26 (Fab, V domains shown, Fab, FLAG + Strep-tag II; not tied by name) VH: not shown VL: DIALTQPASVSGSPGQSITISCTGTSSDVGGYNYVSWYQQHPGKAPKLMIYDVSNRPSGVSNRFSGSKSGNTASLTISGLQAEDEADYYCQSYDFVRFMVFGGGTKLTVLG",Kd,human TIMP-1 [11],~100 nM
"MS-BW-44 (Fab, V domains shown, Fab: heavy chain of MS-BW-3 with light chain of MS-BW-26; not tied by name) VH: not shown VL: DIALTQPASVSGSPGQSITISCTGTSSDVGGYNYVSWYQQHPGKAPKLMIYDVSNRPSGVSNRFSGSKSGNTASLTISGLQAEDEADYYCQSYDFVRFMVFGGGTKLTVLG",IC50 in human protease assay,human TIMP-1 [13],4 nM
same,"IC50 in human protease assay (modified, decreased amounts of TIMP-1 and MMP-1)",human TIMP-1 [13],2 nM
same,improvement factor (Kd),human TIMP-1 [14],6.5 fold
same,Kd,human TIMP-1 [15],2 nM
same,Kd,human TIMP-1 [16],2 nM
same,IC50 in human protease assay,human TIMP-1 [17],4 nM
same,Kd,human TIMP-1 [12],2 nM
same,"IC50 in human protease assay (modified, 0.4 nM TIMP-1 and MMP-1)",human TIMP-1 [18],2 nM
"MS-BW-38 (Fab, V domains shown, Fab, FLAG + Strep-tag II; not tied by name) VH: not shown VL: DIALTQPASVSGSPGQSITISCTGTSSDVGGYNYVSWYQQHPGKAPKLMIYDVSNRPSGVSNRFSGSKSGNTASLTISGLQAEDEADYYCQSYDFTYGSVFGGGTKLTVLG",IC50 in rat protease assay,rat TIMP-1 [1],> 300 nM
same,IC50 in human protease assay,human TIMP-1 [10],~11 nM
same,Kd,rat TIMP-1 [2],~353 nM
same,Kd,human TIMP-1 [12],~3 nM
same,IC50 in rat protease assay,rat TIMP-1 [3],> 300 nM
same,Kd,rat TIMP-1 [4],~353 nM
"MS-BW-44-2 (Fab, V domains shown, Fab; MS-BW-44 with a modified HCDR2 cassette) VH: QVQLVESGGGLVQPGGSLRLSCAASGFTFSSYAMSWVRQAPGKGLEWVSGISGNGVLIFYADSVKGRFTISRDNSKNTLYLQMNSLRAEDTAVYYCARFLDIWGQGTLVTVSS VL: DIALTQPASVSGSPGQSITISCTGTSSDVGGYNYVSWYQQHPGKAPKLMIYDVSNRPSGVSNRFSGSKSGNTASLTISGLQAEDEADYYCQSYDFVRFMVFGGGTKLTVLG","IC50 in human protease assay (modified, decreased TIMP-1 and MMP-1)",human TIMP-1 [13],0.4 nM
same,Kd,human TIMP-1 [15],0.5 nM
same,Kd,human TIMP-1 [16],0.5 nM
same,"IC50 in human protease assay (modified, 0.4 nM TIMP-1 and MMP-1)",human TIMP-1 [18],0.4 nM
"MS-BW-1 (Fab, V domains shown, Fab, FLAG + Strep-tag II; not tied by name) VH: not shown VL: DIALTQPASVSGSPGQSITISCTGTSSDVGGYNYVSWYQQHPGKAPKLMIYDVSNRPSGVSNRFSGSKSGNTASLTISGLQAEDEADYYCQSYDYQQFTVFGGGTKLTVLG",IC50 in human protease assay,human TIMP-1 [9],> 100 nM
same,Kd,human TIMP-1 [11],65 nM
"MS-BW-28 (Fab, V domains shown, Fab, FLAG + Strep-tag II; not tied by name) VH: not shown VL: DIALTQPASVSGSPGQSITISCTGTSSDVGGYNYVSWYQQHPGKAPKLMIYDVSNRPSGVSNRFSGSKSGNTASLTISGLQAEDEADYYCQSYDFRRFSVFGGGTKLTVLG",IC50 in human protease assay,human TIMP-1 [9],22 nM
same,Kd,human TIMP-1 [11],10 nM
"MS-BW-2 (Fab, V domains shown, Fab, FLAG + Strep-tag II; not tied by name) VH: not shown VL: DIALTQPASVSGSPGQSITISCTGTSSDVGGYNYVSWYQQHPGKAPKLMIYDVSNRPSGVSNRFSGSKSGNTASLTISGLQAEDEADYYCQSYDFKTYLVFGGGTKLTVLG",IC50 in human protease assay,human TIMP-1 [9],> 100 nM
same,Kd,human TIMP-1 [11],180 nM
"MS-BW-44-6 (Fab, V domains shown, Fab; MS-BW-44 with modified HCDR1 and HCDR2 cassettes) VH: QVQLVESGGGLVQPGGSLRLSCAASGFTFNSYAMSWVRQAPGKGLEWVSVISGNGSNTYYADSVKGRFTISRDNSKNTLYLQMNSLRAEDTAVYYCARFLDIWGQGTLVTVSS VL: DIALTQPASVSGSPGQSITISCTGTSSDVGGYNYVSWYQQHPGKAPKLMIYDVSNRPSGVSNRFSGSKSGNTASLTISGLQAEDEADYYCQSYDFVRFMVFGGGTKLTVLG","IC50 in human protease assay (modified, decreased TIMP-1 and MMP-1)",human TIMP-1 [13],0.2 nM
same,Kd,human TIMP-1 [15],0.6 nM
same,Kd,human TIMP-1 [16],0.6 nM
same,"IC50 in human protease assay (modified, 0.4 nM TIMP-1 and MMP-1)",human TIMP-1 [18],0.2 nM
"MS-BW-21 (Fab, V domains shown) VH: QVQLVQSGAEVKKPGSSVKVSCKASGGTFSSYAISWVRQAPGQGLEWMGGIIPIFGTANYAQKFQGRVTITADESTSTAYMELSSLRSEDTAVYYCARYIGYTNVMDIRPGFYLDYWGQGTLVTVSS VL: not shown",IC50 in rat protease assay,rat TIMP-1 [1],67 nM
same,IC50 in human protease assay,human TIMP-1 [10],> 300 nM
same,Kd,rat TIMP-1 [2],36 nM
same,Kd,human TIMP-1 [12],520 nM
same,IC50 in rat protease assay,rat TIMP-1 [3],67 nM
same,Kd,rat TIMP-1 [4],36 nM
"MS-BW-17-1 (Fab, V domains shown, Fab from LCDR3 optimization of MS-BW-17; also called MS-BW-17-1 Fab; BW-17-1 Fab) VH: QVQLVQSGAEVKKPGESLKISCKGSGYSFTSYWIGWVRQMPGKGLEWMGIIYPGDSDTRYSPSFQGQVTISADKSISTAYLQWSSLKASDTAMYYCARLTNYFDSIYYDHWGQGTLVTVSS VL: DIALTQPASVSGSPGQSITISCTGTSSDVGGYNYVSWYQQHPGKAPKLMIYDVSNRPSGVSNRFSGSKSGNTASLTISGLQAEDEADYYCQAFDVAPNGKVFGGGTKLTVLG","IC50 (50 % reversal of the inhibition of rat MMP-13 by rat TIMP-1, fluorogenic peptide substrate assay)",rat TIMP-1 [19],~1.3 nM
same,IC50 in rat protease assay,rat TIMP-1 [5],1.6 nM
same,Kd,rat TIMP-1 [2],0.8 nM
"MS-BW-17-1 IgG1 (antibody, V domains shown, Fab MS-BW-17-1 converted to bivalent human IgG1) VH: QVQLVQSGAEVKKPGESLKISCKGSGYSFTSYWIGWVRQMPGKGLEWMGIIYPGDSDTRYSPSFQGQVTISADKSISTAYLQWSSLKASDTAMYYCARLTNYFDSIYYDHWGQGTLVTVSS VL: DIALTQPASVSGSPGQSITISCTGTSSDVGGYNYVSWYQQHPGKAPKLMIYDVSNRPSGVSNRFSGSKSGNTASLTISGLQAEDEADYYCQAFDVAPNGKVFGGGTKLTVL","IC50 (50 % reversal of the inhibition of rat MMP-13 by rat TIMP-1, fluorogenic peptide substrate assay)",rat TIMP-1 [19],~0.9 nM
same,Kd,rat TIMP-1 [20],0.04 nM
